Experiments:
[1] = biological target: recombinant C-terminal domain (CTD) of gingipain B (RgpB) (Porphyromonas gingivalis W83) (UniProt P95493); test: SEC; Superdex 75 10/300 GL, 50 mM Tris, 150 mM NaCl, 2.5 mM CaCl2, 0.02% NaN3 pH 7.5; fractions analysed by Western blot with anti-rCTD antibodies
[2] = biological target: recombinant C-terminal domain (CTD) of gingipain B (RgpB) (Porphyromonas gingivalis W83) (UniProt P95493); test: cross-linking; glutaraldehyde (0.01-0.1%) in PBS, 5 min at 37 °C, stopped with 100 mM Tris; protein at 1, 0.5 and 0.1 mg/ml; SDS-PAGE and Western blot
[3] = biological target: recombinant C-terminal domain (CTD) of gingipain B (RgpB) (Porphyromonas gingivalis W83) (UniProt P95493); test: cross-linking; data not shown: rCTD and r664i6H at 0.1 mg/ml exposed to 0.1, 0.05 and 0.01% glutaraldehyde
[4] = biological target: CTD released by factor Xa from full-length proRgpB662iXa produced in P. gingivalis (Porphyromonas gingivalis W83) (UniProt P95493); test: cross-linking; glutaraldehyde (0.01-0.1%) in PBS, 5 min at 37 °C, stopped with 100 mM Tris; protein at 1, 0.5 and 0.1 mg/ml; SDS-PAGE and Western blot

Row | Substance | stoichiometry N [1] | stoichiometry N [2] | stoichiometry N [3] | stoichiometry N [4]
1 | recombinant C-terminal domain (CTD) of gingipain B (RgpB) (from UniProt P95493 664-736) (domain or fragment) | 2 | 2 | 2 | 
2 | CTD released by factor Xa from full-length proRgpB662iXa produced in P. gingivalis (from UniProt P95493 663-736) (domain or fragment) |  |  |  | 2

Reference: article PMC4804311
